Test system: MS2 coat protein
Test: apparent KD of MS2 coat protein; designed switch direction (-1 OFF switch, 1 ON switch): -1; higher = weaker reporter binding
How it was run: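 Stalled E. coli RNA polymerase transcribed designed RNA switches on Illumina chips, which were then titrated with SNAP-549-labelled MS2 coat protein, doubling from 0.7 or 1.5 nM to 3 µM. Steps lasted from 0.8–1.5 h at the lowest concentration to 10–20 min at the highest. The apparent KD is each design's median over clusters of curve-fitted normalised fluorescence.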

[1] = Eterna round: R95, input ligand: microRNA oligo, concentration not stated
[2] = input ligand: microRNA oligo, concentration not stated
[3] = Eterna round: R95, input ligand: FMN 200 uM
[4] = Eterna round: R95, input ligand: none

Sequence	apparent KD of MS2 coat protein [1] [nM]	apparent KD of MS2 coat protein (input ligand: FMN 200 uM) [nM]	apparent KD of MS2 coat protein (input ligand: none) [nM]	apparent KD of MS2 coat protein [2] [nM]	apparent KD of MS2 coat protein [3] [nM]	apparent KD of MS2 coat protein [4] [nM]
AGAUCACAUGAGGAUCACCCAUGUCAGGAUAUGAUACUAUGUACUUCGGUACAUAGUAUCAGAAGGGAUAUAAA [Ex1-3: 68] (puzzle: Exclusion 1)	75.1					
AGAUCCUGAGUCAGGAUAUAGAGGCGGUAGCCUGGCUAGAAGGGACAUGAGGAUCACCCAUGUGGGUUCUUGCC [Gecela] (puzzle: Brourd's mod of Exclusion 4)	12.7					
AGAUCGUCAGGAUAUACAUGAGGAUCACCCAUGUACUGUCUAAAUUUGACUGUAAGAUGUAGAAGGGACGAUCG [Exclusion 3 (MOD9 of #1 Marzena11)] (Eterna round: R97, puzzle: Exclusion 3)		67.3	25.8			
AGAUCUAUCACGAAAGUGAUAGAUCAAAUUAGUUUUUAAACAUGAGGAUCACCCAUGUCCUAGUGGGCUAGUCUUAU [Mat - Sensor v2 - var 2 - Mod - D135] (Eterna round: R96, puzzle: Sensor v2, turn-off variant 2)		236	239	167		
AGAUGGCGAGGAUAUACAUGAGGAUCACCCAUGUGAAGAGAUAAAGUGAGGAAGAAAAGUAGAAGGCGCUGUCA [Mat - Exclusion 3 - Mod of Salish D24] (puzzle: Exclusion 3)	51.4				199	40.9
AGAUGUAGAUACCGAUCCUACAUGAGGAUCACCCAUGUAGCUAGACGUGCACGCGUAGCUCGUCAGACUACCAGAAG [salish99_TOv1_r3_085] (Eterna round: R96, puzzle: Sensor v3, turn-off variant 1)		461	449	253		
AGAUGUAGAUACCGAUCCUACAUGAGGAUCACCCAUGUAGCUAGACGUGCACGCGUAGCUCGUCAGACUACCAGAAG [salish99_TOv1_r3_085] (puzzle: Sensor v3, turn-off variant 1)	147				292	223
AGAUGUAGAUACCGAUCCUACAUGAGGAUCACCCAUGUAGCUAGACGUGCGGGCGGCGCUCGUCAGACUACCAGUAG [salish99_TOv1_r3_094] (puzzle: Sensor v3, turn-off variant 1)	214				271	371
AGAUUAUGAGGAUAUCGAGUUUAGUACAUGAGGAUCACCCAUGUUAUCCAGGUCUCGUUUCGAGAAGGCAUGAUUC [LRO-Ex5-09] (puzzle: Exclusion 5)	35.3					
AGCAAGCAAUAGGAUAUGCCUGCAAGCUUGCAUGCAGAAGGAUUGACUUGAGGAUCACCCAAGUGGGCUCCUAA [Erbexe] (Eterna round: R97, puzzle: Exclusion 6)		319	49.5			
AGCAGACGAGGAUAUAAAUUUGAUAACAUGAGGAUCACCCAUGUGAUCGAUAGAUCAAAUUUAGAAGGUGUCUGCU [E5/7-B1] (Eterna round: R97, puzzle: Exclusion 5)		512	490			
AGCAGACGAGGAUAUAGAUUUAGAUACAUGAGGAUCACCCAUGUAUAUAUGUAUUUAGAUUUAGAAGGCGUCUGCU [E5/15-A1] (Eterna round: R97, puzzle: Exclusion 5)		222	219			
AGCAUGUGAGGAUAUGCGGACUCCGGUAAAGCUGGAGUCCAGUAGAAGGCACAUGAGGAUCACCCAUGUGAGAU [Uszadi] (Eterna round: R96, puzzle: Exclusion 4)		317	63.2	53.3		
AGCCAAGCAGGAUAUAUCCGGGAUAACAUGAGGAUCACCCAUGUGACCGCUUGAUAUCCUAUAGAAGGGCUUGGGA [Mod of ViennaUCT 24 - Jieux - Exclusion 5] (Eterna round: R97, puzzle: Exclusion 5)		54.8	24.9			
AGCCACAGAGGAUAUACAUACAUCCAGUGGUUAAGAAUACAACAUGAGGAUCACCCAUGUAGAAGGCUGUGGCA [Omei Ex2 BD B10] (Eterna round: R97, puzzle: Exclusion 2)		394	152			
AGCCACAGAGGAUAUACAUACAUCCAGUGGUUAAGAAUACUACAUGAGGAUCACCCAUGUAGAAGGCUGUGGCA [Omei Ex2 BD B11] (Eterna round: R97, puzzle: Exclusion 2)		108	22.4			
AGCCCUGGCGUCAGGAUAUCGAAACCGCAAAAGGACGAGAAGGGACAUGAGGAUCACCCAUGUAGUGAGUUAAA [Isedrecedi] (puzzle: Brourd's mod of Exclusion 4)	34.5				35.6	39
AGCGAGCUAGGAUAUACAUGAGGAUCACCCAUGUCUUUUUAGUACUACGGUGGAAGAUGUAGAAGGAGUGAGAA [Soisza] (puzzle: Exclusion 3)	92.3					
AGCGGACAAGGAUAUACAUGAGGAUCACCCAUGUACUUAGCAAGUUUGUUUCGUCGAUGUAGAAGGUGUAAUGU [EX3 C.14] (Eterna round: R97, puzzle: Exclusion 3)		19.4	20.2			
